Experimental data: the PETadex activity labels (doi:10.1016/j.bbrc.2024.150833)

Substrate: pNPB
Assay: Proxy for plastic degradation [Absorbance @ 405nm]

B1: unnamed (protein)
chain: MTDVEIALSTGRVKGTDLGDVVRYYGIPYAEDPVGDLRFAAPVRREPWPGVRDATRPAATAQRLRFDPDPAIPEPIVAGTDILHVDVWAPTEGAGHPVLVWIHGGGWESGSSHQPWFVGTAFARAGIVVVSVGYRLGVEGFTAFPDAPDNRGVRDWIMALEWVRDEIAAFGGDPGQVTVSGQSAGGGAVLCLLASPLAAGLFHRGIASSPAVLRSPAAQAPKGTTAAGLAAGGRGAVDEFHRRLRKDNPFLMPFRPTVGDDTVPVPPLEGIGSGPGLDLPLLIGSTATEFEGVVRALPGAALVPGAAMILRSQELPTTGLRALARQSAGKSLRRAVGAVVDAATIHSTVVRAAETRVAAGAPTWVYDFRWSEGRGAVHCADLPFFWSVPEAANVRAYLGADAPPGLVDAMHRSWVDFVRSGDPGSPPYAPPGRRVQVWDEPPAVVEDGLADVRAVWWPAGGS
**Q.** Which results are given for B1?
**A.** Proxy for plastic degradation (pH 5): 10.3 U/mg; Proxy for plastic degradation (pH 5.5): 15.4 U/mg; Proxy for plastic degradation (pH 6): 41.1 U/mg; Proxy for plastic degradation (pH 6.5): 61.7 U/mg; Proxy for plastic degradation (pH 7): 72 U/mg; Proxy for plastic degradation (pH 7.5): 77.1 U/mg; Proxy for plastic degradation (pH 8, 10 °C): 36 U/mg; Proxy for plastic degradation (pH 8, 20 °C): 46.3 U/mg; Proxy for plastic degradation (pH 8, 25 °C): 77.1 U/mg; Proxy for plastic degradation (pH 8, 30 °C): 92.6 U/mg; Proxy for plastic degradation (pH 8, 37 °C): 103 U/mg; Proxy for plastic degradation (pH 8, 40 °C): 84.9 U/mg; Proxy for plastic degradation (pH 8, 50 °C): 59.7 U/mg; Proxy for plastic degradation (pH 8, 60 °C): 20.6 U/mg; Proxy for plastic degradation (pH 8, 70 °C): 10.3 U/mg; Proxy for plastic degradation (pH 8.5): 92.6 U/mg; Proxy for plastic degradation (pH 9): 87.4 U/mg
